The Tm is the temperature at which the thermal transition is half complete.

Tm data for 26 substances are collected here from the array DNA melting data of Ke et al..

A short description of the series: melting temperature; melt of duplexes. The conditions noted are these: sodium 0.0675 M; strand 1 µM.
In the case of “CGACGTGCGTCATGTGCTG+CAGCACATTACGCACGTCG ((((((((((.((((((((+)))))))).))))))))))”, the Tm amounted to 57.4 °C.
Then “CGACGTGCCCAATGTGCTG+CAGCACATGCTGCACGTCG ((((((((...((((((((+))))))))...))))))))”, with 47.8 °C; and “CGACGTGCCCCATGTGCTG+CAGCACATCCTGCACGTCG ((((((((...((((((((+))))))))...))))))))”, with 46.8 °C.
With “CGACGTGCCTGATGTGCTG+CAGCACATTAAGCACGTCG ((((((((.(.((((((((+)))))))).).))))))))” the figure was 50.8 °C.
With “CGACGTGCGGAATGTGCTG+CAGCACATACAGCACGTCG ((((((((.(.((((((((+)))))))).).))))))))” the figure was 54.9 °C.
For the substance “CGACGTGCCTGATGTGCTG+CAGCACATAAAGCACGTCG ((((((((.(.((((((((+)))))))).).))))))))”, the Tm was found to be 51.7 °C.
Then “CGACGTGCTGAATGTGCTG+CAGCACATTCAGCACGTCG (((((((((((((((((((+)))))))))))))))))))”, with 64.4 °C.
With “CGACGTGCTGAATGTGCTG+CAGCACATAAAGCACGTCG (((((((((..((((((((+))))))))..)))))))))” the figure was 55.5 °C; with “CGACGTGCGGGATGTGCTG+CAGCACATGACGCACGTCG (((((((((..((((((((+))))))))..)))))))))”, 57.6 °C; with “CGACGTGCTTTATGTGCTG+CAGCACATACTGCACGTCG ((((((((..(((((((((+)))))))))..))))))))”, 50.3 °C.
For the substance “CGACGTGCTCTATGTGCTG+CAGCACATTCGGCACGTCG ((((((((...((((((((+))))))))...))))))))”, the Tm was found to be 48.7 °C.
Then “CGACGTGCAAAATGTGCTG+CAGCACATCGAGCACGTCG ((((((((...((((((((+))))))))...))))))))”, with 49.2 °C; and “CGACGTGCCTAATGTGCTG+CAGCACATTGTGCACGTCG ((((((((..(((((((((+)))))))))..))))))))”, with 49 °C.
With “CGACGTGCGCGATGTGCTG+CAGCACATACTGCACGTCG ((((((((...((((((((+))))))))...))))))))” the figure was 50.3 °C; with “CGACGTGCCACATGTGCTG+CAGCACATCGGGCACGTCG (((((((((..((((((((+))))))))..)))))))))”, 53.9 °C.
Then “CGACGTGCGATATGTGCTG+CAGCACATCTCGCACGTCG ((((((((((.((((((((+)))))))).))))))))))”, with 57.2 °C.
Turning to “CGACGTGCCGAATGTGCTG+CAGCACATGGCGCACGTCG ((((((((...((((((((+))))))))...))))))))”, the midpoint of thermal melting (Tm) turned out to be 51.5 °C.
With “CGACGTGCAGCATGTGCTG+CAGCACATGCCGCACGTCG ((((((((.((((((((((+)))))))))).))))))))” the figure was 59.1 °C; with “CGACGTGCTCCATGTGCTG+CAGCACATGCAGCACGTCG (((((((((.(((((((((+))))))))).)))))))))”, 55.3 °C.
“CGACGTGCAGTATGTGCTG+CAGCACATGTAGCACGTCG ((((((((...((((((((+))))))))...))))))))”: the Tm was 49.8 °C.
“CGACGTGCCCAATGTGCTG+CAGCACATCTCGCACGTCG ((((((((...((((((((+))))))))...))))))))”: the Tm was found to be 47.6 °C.
For “CGACGTGCTCTATGTGCTG+CAGCACATCATGCACGTCG ((((((((...((((((((+))))))))...))))))))”, the Tm came to 48.5 °C.
Then “CGACGTGCATAATGTGCTG+CAGCACATACAGCACGTCG ((((((((...((((((((+))))))))...))))))))”, with 48.2 °C; and “CGACGTGCACCATGTGCTG+CAGCACATCAGGCACGTCG ((((((((...((((((((+))))))))...))))))))”, with 42.9 °C; and “CGACGTGCACCATGTGCTG+CAGCACATCGGGCACGTCG ((((((((.(.((((((((+)))))))).).))))))))”, with 49.4 °C.
With “CGACGTGCAATATGTGCTG+CAGCACATCGAGCACGTCG ((((((((...((((((((+))))))))...))))))))” the figure was 48.2 °C.
